According to the RNAGym collection of RNA variant scans (doi:10.7554/elife.90254):

B1: OR4K15 (parent)
chain: GUUAACGGUCAUAGGCCAUGGAAACUAGGAGCACCAUUUCGCUGCCAGUGAAGAAAUGAACAAAGAAAAUCUGGGCCAGGCAGGCAUCAAAAGAAAUAGUCUUGCGCUCAACCAGAAAGUCUGUAAUCAUUUUAAGGGUA

Variants of: B1
Experiment: self-cleavage, relative activity (ratio to wild type); higher = more cleavage; in vitro, sequencing; the parent is a self-cleaving ribozyme

Variant	self-cleavage
U3A A27G	1.25
G8C A64G	2.95
A82G A96U	0.45
A24C A95U	2.22
A13G C71U	0.46
G65C A111U	0.07
A96G U102A	1.52
A60U U127A	2.36
A22G U103A	0.41
C81U A94G	0.41
U57G A129U	1.78
U43C A63C	2.53
A92U A96G	1.85
A117G U130C	0.39
U72C C107U	0.01
A47U A116C	0.05
U38C U124C	1.21
U38A A78U	0.39
A92G A94U	2.13
A36G A140G	1.31
A24U A55G	1.53
U70A A90G	1.12
A82U A117G	0.28
A36U A59U	1.33

Variant	self-cleavage
U26C A27G	0.75
C34A	1.12
A52U A82G	1.09
U9C U103C	1.13
A86G A90G	1.13
U38A A98G	0.91
U70C U97C	0.68
A129C U132C	0.98
A52U A62G	1.23
A110U A114G	0.49
U43C A111G	0.02
A33G U103C	0.4
A4U U57A	1.53
U2C A30C	1.44
U3C A23G	1.22
A24G U132A	0.48
U9A U87C	0.85
U108C A126C	0.01
A118U U131G	0.62
A23G A98U	0.92
U9C A111G	0.02
A62G U132C	1.59
A68G A82C	0.2
A62C A91G	1.31

Variant	self-cleavage
G7A U19C	1.14
A24C U87C	1.44
A86U A94G	1.72
A47U U120A	1.19
A68U A69G	0.98
U2C U19A	1.16
A68U U108C	0.02
A24U A66G	1.66
A36G A111G	0.03
C107G A117G	0.01
A47G U102G	0.41
C16U A52G	0.37
A23G A134G	0.76
C77U A91G	1.91
A67C A96U	2.39
A4G A18U	1.25
A66G U87C	0.77
U3C A22U	1.12
G7U U131C	1.14
G106C A116G	0.01
U102C G138A	1.82
A5U A30U	1.11
U3C A33G	0.79
U19C U38C	1.22

Variant	self-cleavage
A5U U37C	0.72
U103C A129G	0.56
G73U A95G	0.17
U3C A68G	0.86
A5C A111G	0.16
A36U A52G	1.43
A4G U72C	0.21
U38C A67G	1.55
A126U U127C	0.5
A68G U139A	2.25
U12C U103C	1.41
A33G U70C	0.22
A78U A82U	0.15
G104U	0.02
A51U A67U	2.12
U2C C105U	0.03
A62G A96U	1.26
G74C A96G	0.29
A51G A64U	1.75
A96G A117G	2.13
A5C A68G	1.63
A13G A63G	0.97
U57A A98G	0.42
A59G U131C	0.71

Variant	self-cleavage
A5G A90C	1.08
C107A	0.03
U19C G48A	1.61
A116C U127C	0.03
A66U A140G	2.51
U38A U131C	1.16
A30G A86G	1.41
A33U U39A	1.4
U39A U72G	0.3
A24C U122C	1.49
A5G U12C	1.02
G48A G73A	0.22
A78G A94G	0.19
A96G A110U	1.53
U2A A98G	0.1
A126G U127C	0.83
U100G U103C	0.09
A13U U39C	1.04
A24G U124C	0.73
A4G U124C	0.5
A116G A125G	0.23
A22G C34U	1.33
A56G A125U	1.32
G41A A110G	0.12

Variant	self-cleavage
G8A U103C	1.61
A52G A118U	0.59
U122G A129U	1.75
A5G C107U	0.02
C17U A89G	1.23
U72A C85U	0.36
A59G A68G	1.22
U12A A30U	1.11
A63G A94G	1.98
U87C A129G	1.14
G14A A95G	1.24
A89G	1.11
A47U A126C	0.72
G14A A36G	1.17
U43A	1.58
A64U A69G	1.86
A56G	0.72
G7C U72A	0.38
A110U G137A	1.55
A30U U100C	2.08
U26C C46U	0.81
C46U A69U	1.84
A69G G106A	0.02
A24G A90C	0.33

Variant	self-cleavage
A63G G123A	2.17
U37C U100C	1.67
A54G A67U	2.17
U49C G138A	1.86
A27G U133G	2.02
G14U A111G	0.05
A59U A64G	1.4
A68G A90G	1.17
A24C U70G	0.73
U102C A129U	1.23
U108C A110C	0
A11G A54G	1.01
A54U U139C	1.45
G14C A82G	0.32
A59G A111U	0.07
U70C A91U	1.07
A23G A86U	1.25
G48A A126U	1.9
A110G A129G	0.11
A55C A110G	1.02
U26C U108C	0.01
A56G C107A	0.02
G115A U132G	0.01
